Measured values: patent publication US8492329B2, “Bioactive peptides and methods of using same” (Compugen Ltd., priority 2007, dated 2013)
No end group written: not given here.

What was measured:
LGR7 (RXFP1) [1] = target: T1, LGR7 (RXFP1) (Homo sapiens, UniProt Q9HBX9); experiment: Competition with Europium labelled H2 Relaxin binding to HEK-293T cells expressing LGR7; set-up: expressed in transfected cells; details: LGR7 HEK-293T; 0.01 nM-10 μM; FIG. 9
T1 sequence (Q9HBX9 1-757): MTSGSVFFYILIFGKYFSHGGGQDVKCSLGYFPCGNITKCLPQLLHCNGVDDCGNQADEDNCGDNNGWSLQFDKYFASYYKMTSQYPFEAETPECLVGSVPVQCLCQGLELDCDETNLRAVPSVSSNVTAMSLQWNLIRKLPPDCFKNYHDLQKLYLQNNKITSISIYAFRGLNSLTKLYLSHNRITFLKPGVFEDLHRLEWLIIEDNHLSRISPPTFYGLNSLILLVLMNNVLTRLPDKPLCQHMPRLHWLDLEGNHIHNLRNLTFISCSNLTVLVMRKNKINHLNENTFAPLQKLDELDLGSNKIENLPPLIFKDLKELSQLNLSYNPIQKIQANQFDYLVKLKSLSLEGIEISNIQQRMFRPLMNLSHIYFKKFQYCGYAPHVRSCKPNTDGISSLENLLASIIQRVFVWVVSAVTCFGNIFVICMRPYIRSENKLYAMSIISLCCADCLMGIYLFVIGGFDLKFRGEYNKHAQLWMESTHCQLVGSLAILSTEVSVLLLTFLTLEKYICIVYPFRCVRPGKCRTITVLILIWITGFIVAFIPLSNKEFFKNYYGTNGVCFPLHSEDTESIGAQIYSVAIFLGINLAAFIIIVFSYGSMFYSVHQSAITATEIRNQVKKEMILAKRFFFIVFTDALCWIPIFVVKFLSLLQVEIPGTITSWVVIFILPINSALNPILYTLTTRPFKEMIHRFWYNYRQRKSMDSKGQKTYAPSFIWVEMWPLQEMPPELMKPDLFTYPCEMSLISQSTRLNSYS
Description: The ability of Peptides P74C13V (SEQ ID NO: 10) and P59C13V (SEQ ID NO: 6) to compete with the binding of known ligands to LGR7 or LGR8 was tested by testing the ability of P74C13V (SEQ ID NO: 10) and P59C13V (SEQ ID NO: 6) to compete with the binding of Europium labelled H2 Relaxin or INSL3 (manufactured by the H. Florey institute) to stable HEK-293T cell lines expressing LGR7 or LGR8 respectively.
HEK-293T cell lines stabelly expressing LGR7 (RXFP1) were treated with Europium labelled H2 Relaxin (manufactured by the H. Florey institute) The cells were then treated with decimal increasing concentrations (0.01 nM, 0.1 nM, 1 nM, 10 nM, 100 nM, 1 μM, 10 μM) of un-labeled H2 Relaxin (as a positive control) and the tested peptides P59C13V (P59) (SEQ ID NO: 6), P59C13V-Amide (P59-Amide) (SEQ ID NO: 5), P59-S-Amide (P59S) (SEQ ID NO: 1) and P74C13V (P74) (SEQ ID NO: 10). The binding results are shown as a percentage of specific binding of the radioactive test H2 Relaxin (where 100% is the baseline radiation level).

LGR7 (RXFP1) [2] = target: T1, LGR7 (RXFP1); experiment: pCRE-β-gal reporter assay in Forskolin-treated CHO-K1 cells transiently transfected with LGR7; format: cell-based; set-up: expressed in transfected cells; host or cells: CHO-K1 (transient); details: 5 uM Forskolin, FIG. 7A-B
Description: The ability of P74C13V (P74) (SEQ ID NO: 10) and P59C13V (P59) and P59C13V-Amide (P59-Amide) (SEQ ID NO: 6 and 5 respectively) to activate LGR7 (RXFP1) and LGR8 (RXFP2) was further tested by testing the ability of these peptides to influence cAMP activity induced by 5 μM Forskolin in CHO-K1 cells transiently transfected with LGR7/pCRE-β-gal or LGR8/pCRE-β-gal as compared to H2 relaxin and INSL3 respectively.
LGR7 transfected CHO-K1 cells were treated with 5 uM of Forskolin to stimulate cAMP. The cells were then challenged with increasing doses of H2 Relaxin (as positive control), P74C13V (P74) (SEQ ID NO: 10), P59C13V with (P59-Amide) and without (P59) amide and P59S-Amide (P59S) (SEQ ID NO: 5, 6 and 1, respectively). […] The results are presented as a percentage of Forskolin activity at increasing concentrations of each peptide (represented in log [M]). The baseline for the experiment was the activity of Forskolin alone (100%). Each point represents three unrelated repeats for each experiment together with their standard error bars.

Row | Substance | competition for binding of Europium-H2 Relaxin (LGR7 (RXFP1) [1]) | CRE activation pattern relative to Forskolin (LGR7 (RXFP1) [2])
1 | AYAAFSV-Amide (AYAAFSV-NH2) [Peptide P59-S-Amide] | no competition | 
2 | GQKGQVGPPGAAVRRAYAAFSV [Peptide P59C13V] | no competition | dual activation pattern effect
3 | GQKGQVGPPGAAVRRAYAAFSV-Amide (GQKGQVGPPGAAVRRAYAAFSV-NH2) [P59C13V-Amide] | no competition | slight activation pattern
4 | GQKGQVGPPGAAVRRAYAAFSVGRRAYAAFSV-OH [Peptide P74C13V] | no competition | bell-shaped activation pattern
5 | H2 Relaxin: H2 Relaxin (ACS), positive control, known ligand of LGR7 (RXFP1) [reference compound] |  | increased activation at higher concentrations
